In the supplement of paper PMC10567573 one finds protein stability index data, which are given here for 94 variants.

The labels stand for the following.
B1: PHTF1 (parent)
chain: RVKLISNKGTETDNDPSCVHPIIK
B2: SNX8 (parent)
chain: RMVPALPPKRMLGADREFIEARRR
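Note: lentivirally expressed fusions sorted by FACS into six bins by GFP to DsRed ratio, PSI derived from sequencing read proportions per bin multiplied by bin number.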

One data set covers variants of B1. Nature of the data set: protein stability index of a GFP-peptide fusion (GPS, HEK-293T) (PSI 1-6); higher = more stable. As to conditions: c terminus: a fixed tail appended.
For AVKLISNKGTETDNDPSCVHPIIK [R1A], the protein stability index is 4.57.

In the case of FVKLISNKGTETDNDPSCVHPIIK [R1F], the protein stability index stood at 2.21.

Turning to LVKLISNKGTETDNDPSCVHPIIK [R1L], the protein stability index amounted to 3.51.

As for EVKLISNKGTETDNDPSCVHPIIK [R1E], the protein stability index amounted to 4.14.

As for MVKLISNKGTETDNDPSCVHPIIK [R1M], the protein stability index stood at 3.66.

As for NVKLISNKGTETDNDPSCVHPIIK [R1N], the protein stability index was 4.63.

Take GVKLISNKGTETDNDPSCVHPIIK [R1G]: the protein stability index is 4.15.

Consider CVKLISNKGTETDNDPSCVHPIIK [R1C], for which the protein stability index amounted to 3.93.

Regarding KVKLISNKGTETDNDPSCVHPIIK [R1K], the protein stability index came to 4.05.

As for DVKLISNKGTETDNDPSCVHPIIK [R1D], the protein stability index came to 4.74.

Turning to IVKLISNKGTETDNDPSCVHPIIK [R1I], the protein stability index amounted to 3.16.

HVKLISNKGTETDNDPSCVHPIIK [R1H]: the protein stability index came to 4.12.

Variants of B2 are the subject of another data set. Described as above. Particulars: c terminus: a fixed tail appended.
In the case of RMVPALPPKRMLGADREFIEERRR [A21E], the protein stability index stood at 3.43.

Take RMVPALPPKRMLGADREFIEYRRR [A21Y]: the protein stability index was 3.24.

Regarding RMVPALPPKRMLGADREFIEVRRR [A21V], the protein stability index was 3.76.

On to RMVPALPPKRMLGADREFIETRRR [A21T], for which the protein stability index was 3.96.

Consider RMVPALPPKRMLGADREFIEQRRR [A21Q], for which the protein stability index was 3.61.

For RMVPALPPKRMLGADREFIEMRRR [A21M], the protein stability index came to 3.04.

For the variant RMVPALPPKRMLGADREFIEDRRR [A21D], the protein stability index was 3.83.

Regarding RMVPALPPKRMLGADREFIESRRR [A21S], the protein stability index turned out to be 3.12.

As for RMVPALPPKRMLGADREFIERRRR [A21R], the protein stability index worked out at 3.56.

For the variant RMVPALPPKRMLGADPEFIEARRR [R16P], the protein stability index worked out at 4.33.

Take RMVPALPPKRMLGADVEFIEARRR [R16V]: the protein stability index came to 3.62.

RMVPALPPKRMLGADIEFIEARRR [R16I]: the protein stability index was determined as 2.78.

For the variant RMVPALPPKRMLGADCEFIEARRR [R16C], the protein stability index turned out to be 3.53.

Regarding RMVPALPPKRMLGADSEFIEARRR [R16S], the protein stability index came out at 3.91.

As to RMVPALPPKRMLGADEEFIEARRR [R16E], the protein stability index came out at 4.41.

For RMVPALPPKRMLGADNEFIEARRR [R16N], the protein stability index amounted to 4.39.

Regarding RMVPALPPKRMLGADDEFIEARRR [R16D], the protein stability index came to 4.07.

Regarding RMVPALPPKRMLGADAEFIEARRR [R16A], the protein stability index worked out at 4.04.

For the variant RMVPQLPPKRMLGADREFIEARRR [A5Q], the protein stability index stood at 4.1.

On to RMVPFLPPKRMLGADREFIEARRR [A5F], for which the protein stability index came to 3.24.

Turning to RMVPTLPPKRMLGADREFIEARRR [A5T], the protein stability index was found to be 3.81.

As to RMVPDLPPKRMLGADREFIEARRR [A5D], the protein stability index is 4.23.

As to RMVPALPPKRMLGAKREFIEARRR [D15K], the protein stability index turned out to be 3.16.

With RMVPALPPKRMLGAMREFIEARRR [D15M], the protein stability index was 1.56.

RMVPALPPKRMLGAHREFIEARRR [D15H]: the protein stability index stood at 3.22.

In the case of RMVPALPPKRMLGAVREFIEARRR [D15V], the protein stability index came to 2.15.

Regarding RMVPALPPKRMLGASREFIEARRR [D15S], the protein stability index amounted to 3.77.

In the case of RMVPALPPKRMLGAQREFIEARRR [D15Q], the protein stability index was found to be 3.93.

Turning to RMVPALPPKRMLAADREFIEARRR [G13A], the protein stability index was 2.81.

Regarding RMVPALPPKRMLVADREFIEARRR [G13V], the protein stability index was found to be 2.54.

In the case of RMVPALPPKRMLKADREFIEARRR [G13K], the protein stability index worked out at 3.72.

On to RMVPALPPKRMLCADREFIEARRR [G13C], for which the protein stability index was 2.17.

As to RMVPALPPKRMLIADREFIEARRR [G13I], the protein stability index turned out to be 2.79.

As to RMVPALPPKRMLMADREFIEARRR [G13M], the protein stability index came out at 2.43.

Take RMVPALPPKRMLGADREFIEARHR [R23H]: the protein stability index was 2.21.

Consider RMVPALPPKRMLGADREFIEARGR [R23G], for which the protein stability index was 3.79.

As for RMVPALPPKRMLGADREFIEARER [R23E], the protein stability index amounted to 4.16.

As for RMVPALPPKRMLGADREFIEARLR [R23L], the protein stability index came to 3.65.

RMVPALPPKRMLGADREFIEARQR [R23Q]: the protein stability index stood at 3.11.

For RIVPALPPKRMLGADREFIEARRR [M2I], the protein stability index was found to be 3.01.

In the case of RWVPALPPKRMLGADREFIEARRR [M2W], the protein stability index worked out at 2.14.

For RTVPALPPKRMLGADREFIEARRR [M2T], the protein stability index amounted to 4.08.

Consider RHVPALPPKRMLGADREFIEARRR [M2H], for which the protein stability index was 4.04.

Turning to RFVPALPPKRMLGADREFIEARRR [M2F], the protein stability index was 3.44.

Turning to RAVPALPPKRMLGADREFIEARRR [M2A], the protein stability index was 3.94.

Turning to REVPALPPKRMLGADREFIEARRR [M2E], the protein stability index came to 4.52.

RDVPALPPKRMLGADREFIEARRR [M2D]: the protein stability index came out at 4.17.

In the case of RMVPAQPPKRMLGADREFIEARRR [L6Q], the protein stability index came to 4.02.

As for RMVPASPPKRMLGADREFIEARRR [L6S], the protein stability index stood at 4.84.

As to RMVPARPPKRMLGADREFIEARRR [L6R], the protein stability index is 4.3.

On to RMVPAYPPKRMLGADREFIEARRR [L6Y], for which the protein stability index amounted to 3.39.

Take RMVPADPPKRMLGADREFIEARRR [L6D]: the protein stability index worked out at 4.44.

Regarding RMVMALPPKRMLGADREFIEARRR [P4M], the protein stability index came out at 3.1.

Turning to RMVAALPPKRMLGADREFIEARRR [P4A], the protein stability index worked out at 3.32.

As for RMVWALPPKRMLGADREFIEARRR [P4W], the protein stability index worked out at 2.77.

With RMVTALPPKRMLGADREFIEARRR [P4T], the protein stability index was found to be 3.34.

Regarding RMVNALPPKRMLGADREFIEARRR [P4N], the protein stability index amounted to 3.41.

With RMVKALPPKRMLGADREFIEARRR [P4K], the protein stability index was 3.81.

Turning to RMVFALPPKRMLGADREFIEARRR [P4F], the protein stability index was 2.98.

Take RMVHALPPKRMLGADREFIEARRR [P4H]: the protein stability index was found to be 3.09.

RMVEALPPKRMLGADREFIEARRR [P4E]: the protein stability index stood at 3.67.

Regarding RMVYALPPKRMLGADREFIEARRR [P4Y], the protein stability index is 3.31.

Turning to RMVRALPPKRMLGADREFIEARRR [P4R], the protein stability index worked out at 4.13.

As for RMVCALPPKRMLGADREFIEARRR [P4C], the protein stability index amounted to 3.62.

RMVPALPPKRLLGADREFIEARRR [M11L]: the protein stability index was found to be 3.69.

On to RMVPALPPKRRLGADREFIEARRR [M11R], for which the protein stability index stood at 4.58.

As for RMVPALPPKRALGADREFIEARRR [M11A], the protein stability index is 3.86.

RMVPALPPKRYLGADREFIEARRR [M11Y]: the protein stability index turned out to be 2.99.

For the variant RMVPALPPKRCLGADREFIEARRR [M11C], the protein stability index came out at 3.46.

Regarding RMVPALPPKRILGADREFIEARRR [M11I], the protein stability index stood at 4.78.

As for RMVPALPPKRMLGADREFITARRR [E20T], the protein stability index was found to be 3.99.

For RMVPALPPKRMLGADREFINARRR [E20N], the protein stability index came out at 4.12.

As to RMVPALPPKRMLGADREFIYARRR [E20Y], the protein stability index was 3.68.

Consider RMVPALPPKRMLGADREFIPARRR [E20P], for which the protein stability index came out at 4.24.

On to RMVPALPPKRMLGADREFIAARRR [E20A], for which the protein stability index amounted to 3.51.

In the case of RMVPALPPKRMLGADREFILARRR [E20L], the protein stability index came out at 3.9.

Regarding RMVPALPPKRMLGADREFIFARRR [E20F], the protein stability index worked out at 3.12.

For the variant RMVPALPPKRMLGADREFIKARRR [E20K], the protein stability index amounted to 3.94.

Consider RMVPALPPKRMLGADREFIHARRR [E20H], for which the protein stability index was determined as 3.98.

Take RMVPALPPKRMLGADRAFIEARRR [E17A]: the protein stability index was determined as 3.55.

RMVPALPPKRMLGADRTFIEARRR [E17T]: the protein stability index came out at 3.55.

For the variant RMVPALPPKRMLGADRVFIEARRR [E17V], the protein stability index was determined as 2.81.
